In the array DNA melting data of Ke et al.:

Experiment: melting temperature; UV melt of duplexes

Substance | Tm (sodium 0.12 M, strand 6 µM) | Tm (sodium 0.12 M, strand 5.8 µM) | Tm (sodium 0.07 M, strand 2 µM) | Tm (sodium 0.12 M, strand 2 µM) | Tm (sodium 0.22 M, strand 2 µM) | Tm (sodium 0.62 M, strand 2 µM) | Tm (sodium 1.02 M, strand 2 µM) | Tm (sodium 0.12 M, strand 4 µM)
AACGCGCGTAGAGTGGCCGCAA+TTGCGGCCACTCTACGCGCGTT ((((((((((((((((((((((+)))))))))))))))))))))) | 77.3 °C |  |  |  |  |  |  | 
ATAAATTAGGATCCATATAAAT+ATTTATATGGATCCTAATTTAT ((((((((((((((((((((((+)))))))))))))))))))))) |  | 47.7 °C |  |  |  |  |  | 
CTTAAGATATGAGAACTTCAACTAATGTGT+ACACATTAGTTGAAGTTCTCATATCTTAAG ((((((((((((((((((((((((((((((+)))))))))))))))))))))))))))))) |  |  | 56.8 °C | 61.3 °C | 64.9 °C | 70.5 °C | 71.8 °C | 
CGGAATCCATGTTACTTCGGCTATC+GATAGCCGAAGTAACATGGATTCCG (((((((((((((((((((((((((+))))))))))))))))))))))))) |  |  | 60.9 °C | 64.7 °C | 68.7 °C | 73.3 °C | 74.8 °C | 
AACGCGTGAATTCTGGCCAA+TTGGCCAGAATTCACGCGTT ((((((((((((((((((((+)))))))))))))))))))) | 66.6 °C |  |  |  |  |  |  | 
GTGGTGGGCCGTGCGCTCTG+CAGAGCGCACGGCCCACCAC ((((((((((((((((((((+)))))))))))))))))))) |  |  | 69.2 °C | 72.7 °C | 76.2 °C | 79.6 °C | 81 °C | 
GCGGATTAGGATCCATATCGCG+CGCGATATGGATCCTAATCCGC ((((((((((((((((((((((+)))))))))))))))))))))) |  |  |  |  |  |  |  | 65.4 °C
CAGCCTCGTTCGCACAGCCC+GGGCTGTGCGAACGAGGCTG ((((((((((((((((((((+)))))))))))))))))))) |  |  | 67.2 °C | 70.7 °C | 74 °C | 77.7 °C | 78.1 °C | 
AGCAGTCCGCCACACCCTGA+TCAGGGTGTGGCGGACTGCT ((((((((((((((((((((+)))))))))))))))))))) |  |  | 66.5 °C | 69.9 °C | 74 °C | 76.9 °C | 78.5 °C | 
TCAGTAGGCGTGACGCAGAGCTGGCGATGG+CCATCGCCAGCTCTGCGTCACGCCTACTGA ((((((((((((((((((((((((((((((+)))))))))))))))))))))))))))))) |  |  | 72.2 °C | 75.7 °C | 79.3 °C | 83.3 °C | 84.6 °C | 
